According to US20070014803A1 (ARBOR VITA, published 2007):

Key:
HIV-1 Peptide 1904 [1] = target: T1, HIV-1 Peptide 1904 (HIV-1); experiment: MATRIX screen of GST-PDZ array, modified G assay ELISA; 'Intensity of Hit'
T1 construct: also called HIV peptide 1904
Description: (§1) The primary MATRIX screen against all PDZ proteins in the library was performed under pre-incubation conditions, which are a modification of the G assay. A pre-incubation assay incubates the peptide with the HRP-streptavidin before addition of the mixture to the PDZ-coated plate. The subsequent titrations of the peptide against the PDZs of interest were performed under normal ELISA G assay conditions. In normal conditions the peptide is incubated on the PDZ coated plate before the later addition of the HRP-streptavidin.
(§2) Prepare peptides in half of volume need with double of desired concentration. […] Dilute HRP (1:1000) in another half of volume (same volume with peptide) then mix with peptides. […] Incubate the peptide-HRP mixtures for 20 minutes at RT 8. Wash plate 3× with cold PBS* 9. Add peptide-HRP mixtures at 50 μl per well (write time on plate) 10. […] Turn on plate reader and prepare files 12. Promptly wash plate 5× with room temperature PBS 13. Add 100 μl/well TMB substrate (write time on plate) 14. Incubate in dark at room temp for a maximum of 30 minutes 15. Stop reaction with 100 μl of 0.18M H₂SO₄, 30 min. after adding TMB 16. Take last reading at 450 nm soon after stopping reaction

HIV-1 Peptide 1905 [2] = target: T2, HIV-1 Peptide 1905 (HIV-1); experiment: as above
T2 construct: also called HIV peptide 1905
Description: as §1, §2

HIV-1 Peptide 1905 [3] = target: T2, HIV-1 Peptide 1905; experiment: modified G assay ELISA, third experiment (text prints 'FIG. 3C' a second time, read as FIG. 5C)
HIV-1 Peptide 1905 [4] = target: T2, HIV-1 Peptide 1905; experiment: G assay ELISA (FIG. 4C): GST-PDZ on anti-GST plate, biotinylated peptide titrated, streptavidin-HRP
HIV-1 Peptide 1905 [5] = target: T2, HIV-1 Peptide 1905; experiment: modified G assay ELISA (FIG. 3C): peptide pre-incubated with streptavidin-HRP, titrated on GST-PDZ plate
HIV-1 Peptide 1904 [6] = target: T1, HIV-1 Peptide 1904; experiment: modified G assay ELISA (FIG. 2C): peptide pre-incubated with streptavidin-HRP, titrated on GST-PDZ plate
HIV-1 Peptide 1904 [7] = target: T1, HIV-1 Peptide 1904; experiment: G assay ELISA (FIG. 1C): GST-PDZ on anti-GST plate, biotinylated peptide titrated, streptavidin-HRP

B1: INADL d3, GST fusion (other)
chain: NVELVRKDGQSLGIRIVGYVGTSHTGEASGIYVKSIIPGSAAYHNGHIQVNDKIVAVDGVNIQGFANHDVVEVLRNAGQVVHLTLVRRK
notes: also called INADL (PDZ #3)
Does B1 bind (HIV-1 Peptide 1904 [1])?
Result: binds

B2: KIAA0807 MAST2, GST fusion (other)
chain: ISALGSMRPPIIIHRAGKKYGFTLRAIRVYMGDSDVYTVHHMVWHVEDGGPASEAGLRQGDLITHVNGEPVHGLVHTEVVELILKSGNKVAISTTPLENSS
Does B2 bind (HIV-1 Peptide 1905 [2])?
Result: binds

Does B2 bind (HIV-1 Peptide 1904 [1])?
Result: binds

B3: KIAA0316, GST fusion (other)
chain: IPPAPRKVEMRRDPVLGFGFVAGSEKPVVVRSVTPGGPSEGKLIPGDQIVMINDEPVSAAPRERVIDLVRSCKESILLTVIQPYPSPKSEFIVTD
Does B3 bind (HIV-1 Peptide 1904 [1])?
Result: binds

B4: PICK1 F.L., GST fusion (other)
chain: MFADLDYDIEEDKLGIPTVPGKVTLQKDAQNLIGISIGGGAQYCPCLYIVQVFDNTPAALDGTVAAGDEITGVNGRSIKGKTKVEVAKMIQEVKGEVTIHYNKLQADPKQGMSLDIVLKKVKHRLVENMSSGTADALGLSRAILCNDGLVKRLEELERTAELYKGMTEHTKNLLRAFYELSQTHRAFGDVFSVIGVREPQPAASEAFVKFADAHRSIEKFGIRLLKTIKPMLTDLNTYLNKAIPDTRLTIKKYLDVKFEYLSYCLKVKEMDDEEYSCIALGEPLYRVSTGNYEYRLILRCRQEARARFSQMRKDVLEKMELLDQKHVQDIVFQLQRLVSTMSKYYNDCYAVLRDADVFPIEVDLAHTTLAYGLNQEEFTDGEEEEEEEDTAAGEPSRDTRGAAGPLDKGGSWCDS
Does B4 bind (HIV-1 Peptide 1905 [2])?
Result: binds

B5: KIAA0751 RIM2, GST fusion (other)
chain: TLNEEHSHSDKHPVTWQPSKDGDRLIGRILLNKRLKDGSVPRDSGAMLGLKVVGGKMTESGRLCAFITKVKKGSLADTVGHLRPGDEVLEWNGRLLQGATFEEVYNIILESKPEPQVELVVSRPIG
How did the EC50 (HIV-1 Peptide 1905 [3]) turn out when B5 was run?
Its EC50 is 0.068 µM.

What about the EC50 (HIV-1 Peptide 1905 [4]) of the same binder?
The EC50 was 0.182 µM.

What about the EC50 (HIV-1 Peptide 1905 [5]) of the same binder?
The EC50 was 0.014 µM.

What about the EC50 (HIV-1 Peptide 1904 [6]) of the same binder?
The EC50 was 0.03 µM.

What about the EC50 (HIV-1 Peptide 1904 [7]) of the same binder?
The EC50 was 0.41 µM.

B6: KIAA1284, GST fusion (other)
chain: KDVNVYVNPKKLTVIKAKEQLKLLEVLVGIIHQTKWSWRRTGKQGDGERLVVHGLLPGGSAMKSGQVLIGDVLVAVNDVDVTTENIERVLSCIPGPMQVKLTFENAYDVKRET
What does the source list for B6?
binding result (HIV-1 Peptide 1905 [2]): binds; binding result (HIV-1 Peptide 1904 [1]): binds

B7: AIPC d1, GST fusion (other)
chain: LIRPSVISIIGLYKEKGKGLGFSIAGGRDCIRGQMGIFVKTIFPNGSAAEDGRLKEGDEILDVNGIPIKGLTFQEAIHTFKQIRSGLFVLTVRTKLVSPSLTNSS
notes: also called AIPC (PDZ #1)
Does B7 bind (HIV-1 Peptide 1904 [1])?
Result: binds

B8: EZRIN Binding Protein 50 PDZ #1, GST fusion (other)
chain: LCCLEKGPNGYGFHLHGEKGKLGQYIRLVEPGSPAEKAGLLAGDRLVEVNGENVEKETHQQVVSRIRAALNAVRLLVVDPE
notes: also called EBP50 d1; EBP50 (PDZ #1)
Does B8 bind (HIV-1 Peptide 1905 [2])?
Result: binds

B9: MAGI1 d1, GST fusion (other)
chain: PSELKGKFIHTKLRKSSRGFGFTVVGGDEPDEFLQIKSLVLDGPAALDGKMETGDVIVSVNDTCVLGHTHAQVVKIFQSIPIGASVDLELCRGYPLPFDPDGIHRD
notes: also called MAGI1 (PDZ #1)
Does B9 bind (HIV-1 Peptide 1904 [1])?
Result: binds
